Assay results published in US20180346600A1.
Where two headings read alike, the source gives them in different places. One block for each substance: values may come before it.

Experiments:
Assay in all cases: HEK293-F co-expression, Protein A purification, non-reducing SDS-PAGE densitometry
[1] = target: scFv-FcCH3A, A107 (K370E/K409W) (human) [IgG part: P0DOX5]
[2] = target: scFv-FcCH3A, A107w/oW-VT (K370E) (human) [IgG part: P0DOX5]
[3] = target: scFv-FcCH3A, A107w/oW-VT (K370E) (human) [IgG part: P0DOX5]; remark: listed apart in the source
[4] = target: scFv-FcCH3A, A109 (K370M/K409W) (human) [IgG part: P0DOX5]
[5] = target: scFv-FcCH3A, A109w/oW-VT (K370M) (human) [IgG part: P0DOX5]
[6] = target: scFv-FcCH3A, A146w/oW-VT (K370D) (human) [IgG part: P0DOX5]
[7] = target: scFv-FcCH3A, A205 (E357D/S364W/K370E) (human) [IgG part: P0DOX5]
[8] = target: scFv-FcCH3A, A210 (E357A/S364Y/K370E) (human) [IgG part: P0DOX5]
[9] = target: scFv-FcCH3A, A216 (E357G/S364W/K370E) (human) [IgG part: P0DOX5]
[10] = target: scFv-FcCH3A, A241 (E357N/S364W/K370E) (human) [IgG part: P0DOX5]
[11] = target: scFv-FcCH3A, B121 (D399E/K409W) (human) [IgG part: P0DOX5]
[12] = target: scFv-FcCH3A, B135 (D399L/K409W) (human) [IgG part: P0DOX5]
[13] = target: scFv-FcCH3A, B168 (D399L/K409W) (human) [IgG part: P0DOX5]
[14] = target: scFv-FcCH3A, B168w/oW-VT (D399L) (human) [IgG part: P0DOX5]
[15] = target: scFv-FcCH3A, B168w/oW-VT (D399L) (human) [IgG part: P0DOX5]; remark: listed apart in the source
[16] = target: scFv-FcCH3A, B212 (K392I/D399L) (human) [IgG part: P0DOX5]
[17] = target: scFv-FcCH3A, B215 (K392R/K409R/D399L) (human) [IgG part: P0DOX5]
[18] = target: scFv-FcCH3A, B235 (K392C/D399L) (human) [IgG part: P0DOX5]
[19] = target: scFv-FcCH3A, B239 (K392L/D399L) (human) [IgG part: P0DOX5]
[20] = target: scFv-FcCH3A, B240 (K392S/K409R/D399L) (human) [IgG part: P0DOX5]
[21] = target: scFv-FcCH3A, B256 (K392N/D399L) (human) [IgG part: P0DOX5]
[22] = target: scFv-FcCH3A, EW-RVT (K360E/K409W) (human)
[23] = target: scFv-FcCH3A, EW-RVT (K360E/K409W) (human); remark: listed apart in the source
[24] = target: scFv-FcCH3A, W-VT (K409W) (human) [IgG part: P0DOX5]

Substance: scFv-FcCH3A, A107 (K370E/K409W) (from UniProt P0DOX5 227-449) (Fc fusion)
(scFv-Fc)2 (homodimer)(%) [1]: 4.2%

Substance: scFv-FcCH3A, A107w/oW-VT (K370E) (from UniProt P0DOX5 227-449) (Fc fusion)
(scFv-Fc)2 (homodimer)(%) [2]: 21.3%
(scFv-Fc)2 (homodimer)(%) [3]: 21.3%

Substance: scFv-FcCH3A, A109 (K370M/K409W) (from UniProt P0DOX5 227-449) (Fc fusion)
(scFv-Fc)2 (homodimer)(%) [4]: 0.5%

Substance: scFv-FcCH3A, A205 (E357D/S364W/K370E) (from UniProt P0DOX5 227-449) (Fc fusion)
(scFv-Fc)2 (homodimer)(%) [7]: 1%

Substance: scFv-FcCH3A, A210 (E357A/S364Y/K370E) (from UniProt P0DOX5 227-449) (Fc fusion)
(scFv-Fc)2 (homodimer)(%) [8]: 9.9%

Substance: scFv-FcCH3A, B121 (D399E/K409W) (from UniProt P0DOX5 227-449) (Fc fusion)
(scFv-Fc)2 (homodimer)(%) [11]: 1.5%

Substance: scFv-FcCH3A, B212 (K392I/D399L) (from UniProt P0DOX5 227-449) (Fc fusion)
(scFv-Fc)2 (homodimer)(%) [16]: 0.9%

Substance: scFv-FcCH3A, B235 (K392C/D399L) (from UniProt P0DOX5 227-449) (Fc fusion)
(scFv-Fc)2 (homodimer)(%) [18]: 3.7%

Substance: scFv-FcCH3A, B240 (K392S/K409R/D399L) (from UniProt P0DOX5 227-449) (Fc fusion)
(scFv-Fc)2 (homodimer)(%) [20]: 4.8%

Substance: scFv-FcCH3A, W-VT (K409W) (from UniProt P0DOX5 227-449) (Fc fusion)
(scFv-Fc)2 (homodimer)(%) [24]: 1.4%

Further lines, results first:

(scFv-Fc)2 (homodimer)(%) [5]: 5.6%
Substance: scFv-FcCH3A, A109w/oW-VT (K370M) (from UniProt P0DOX5 227-449) (Fc fusion)

(scFv-Fc)2 (homodimer)(%) [6]: 4.6%
Substance: scFv-FcCH3A, A146w/oW-VT (K370D) (from UniProt P0DOX5 227-449) (Fc fusion)

(scFv-Fc)2 (homodimer)(%) [9]: 1.5%
Substance: scFv-FcCH3A, A216 (E357G/S364W/K370E) (from UniProt P0DOX5 227-449) (Fc fusion)

(scFv-Fc)2 (homodimer)(%) [10]: 15.7%
Substance: scFv-FcCH3A, A241 (E357N/S364W/K370E) (from UniProt P0DOX5 227-449) (Fc fusion)

(scFv-Fc)2 (homodimer)(%) [12]: 4.1%
Substance: scFv-FcCH3A, B135 (D399L/K409W) (from UniProt P0DOX5 227-449) (Fc fusion)

(scFv-Fc)2 (homodimer)(%) [13]: 1.2%
Substance: scFv-FcCH3A, B168 (D399L/K409W) (from UniProt P0DOX5 227-449) (Fc fusion)

(scFv-Fc)2 (homodimer)(%) [14]: 1.6%
(scFv-Fc)2 (homodimer)(%) [15]: 1.5%
Substance: scFv-FcCH3A, B168w/oW-VT (D399L) (from UniProt P0DOX5 227-449) (Fc fusion)

(scFv-Fc)2 (homodimer)(%) [17]: 1.9%
Substance: scFv-FcCH3A, B215 (K392R/K409R/D399L) (from UniProt P0DOX5 227-449) (Fc fusion)

(scFv-Fc)2 (homodimer)(%) [19]: 3.4%
Substance: scFv-FcCH3A, B239 (K392L/D399L) (from UniProt P0DOX5 227-449) (Fc fusion)

(scFv-Fc)2 (homodimer)(%) [21]: 3.9%
Substance: scFv-FcCH3A, B256 (K392N/D399L) (from UniProt P0DOX5 227-449) (Fc fusion)

(scFv-Fc)2 (homodimer)(%) [22]: 0.5%
(scFv-Fc)2 (homodimer)(%) [23]: 0.5%
Substance: scFv-FcCH3A, EW-RVT (K360E/K409W) (Fc fusion)
